Test results taken from article doi:10.1101/484048.
Read-outs that look alike come from different tables or passages of the source.

How the values were obtained:
[1] = target: human methylmalonyl-CoA epimerase p.Arg143Cys variant (human) (UniProt Q96PE7); test: crystal structure
[2] = target: human methylmalonyl-CoA epimerase, wild type (human) (UniProt Q96PE7); test: crystal structure
[3] = target: human methylmalonyl-CoA epimerase, wild type (human) (UniProt Q96PE7)

Substance	stoichiometry N [1]	stoichiometry N [2]	stoichiometry N [3]
human methylmalonyl-CoA epimerase p.Arg143Cys variant (from UniProt Q96PE7 45-176) (enzyme)	2		
human methylmalonyl-CoA epimerase, wild type (from UniProt Q96PE7 45-176) (enzyme)		2	2
